Measured values reported in publication doi:10.1101/2020.03.14.988758 (bioRxiv, 2020).

Target: ectodomain construct of MuSK (ectoMuSK) (aa1-472) (Homo sapiens (assumed), UniProt O15146, biotin on the Avitag (site-specific, BirA))
Assay: BLI

Sequence of ectodomain construct of MuSK (ectoMuSK) (aa1-472) (O15146 24-472): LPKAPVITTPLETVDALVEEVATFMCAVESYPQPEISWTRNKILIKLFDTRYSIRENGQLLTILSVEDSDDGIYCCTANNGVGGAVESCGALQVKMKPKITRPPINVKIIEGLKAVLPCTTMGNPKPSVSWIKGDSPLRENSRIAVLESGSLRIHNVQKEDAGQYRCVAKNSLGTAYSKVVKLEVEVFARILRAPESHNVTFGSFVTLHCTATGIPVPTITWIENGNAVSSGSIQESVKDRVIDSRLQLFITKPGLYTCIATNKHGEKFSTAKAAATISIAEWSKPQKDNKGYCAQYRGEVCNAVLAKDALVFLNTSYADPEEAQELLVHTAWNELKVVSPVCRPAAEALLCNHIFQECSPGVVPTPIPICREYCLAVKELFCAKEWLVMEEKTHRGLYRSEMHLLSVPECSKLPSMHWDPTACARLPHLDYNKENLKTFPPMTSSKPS

Row | Kd | Binder
1 | 0.41 nM | Fab MuSK1A (mature) (Fab, V domains shown) VH: QVQLVQSGAEVKKPGASVKVSCKTSGYTFNNYDINWVRQAAGQGLEWMGWMNPYSGNTGYAQKFQGRVTMTRNISITTVYMELSSLRSEDTAVYYCAREVRGDTGYGGGSDYWGQGTLVTVSS VL: SYELTQPPSVSLSPGQTATITCSGDKLDDNYVCWYQQKPGQSPVLVIYQDTMRPSGIPERFSGSNSGNIATLTISGTQAVDEADYYCQAWDGSTVVFGGGTRLTVL
2 | 0.44 nM | Fab MuSK1B (mature) (Fab, V domains shown) VH: EVQLVEWGAGLLKPSETLSLTCAVYGGSFSGDYWWTWIRQPPGKGLEWIGEIDHTGNTNYNPSLKSRLTLSVDMSKNHFSLKLTSVTAADTALYFCARQEGLGYYDSWGQGTLVTVSS VL: SYELTQSPSVSVSPGQTANITCSGDKLGDRYASWYQQKPAQSPVLVIYQDDRRPSGIPERFSGSNSGNTATLTISGTQGMDEADYYCQAWDGTTVFGGGTKLTVL
